We go through three molecules from publication PMC12383261, “Mechanistic adaptation of the metazoan RabGEFs Mon1-Ccz1 and Fuzzy-Inturned” (Science Advances, 2025).

T1: Fuzzy^LD1-Inturned^LD1 catalytic core complex (human)
T1 sequence (Q9BT04 whole entry, looked up): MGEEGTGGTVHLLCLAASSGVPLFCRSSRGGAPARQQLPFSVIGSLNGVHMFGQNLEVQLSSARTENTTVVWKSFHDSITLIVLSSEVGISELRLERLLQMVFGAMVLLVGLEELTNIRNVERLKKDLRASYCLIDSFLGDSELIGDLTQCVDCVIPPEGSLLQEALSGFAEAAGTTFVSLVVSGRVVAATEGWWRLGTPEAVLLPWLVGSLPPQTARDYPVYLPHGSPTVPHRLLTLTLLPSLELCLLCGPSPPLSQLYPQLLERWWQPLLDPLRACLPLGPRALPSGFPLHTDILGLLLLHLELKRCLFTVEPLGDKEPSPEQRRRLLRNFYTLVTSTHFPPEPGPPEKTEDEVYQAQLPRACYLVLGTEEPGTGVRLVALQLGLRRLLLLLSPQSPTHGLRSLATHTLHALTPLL
T1 sequence (Q9ULD6 whole entry, looked up): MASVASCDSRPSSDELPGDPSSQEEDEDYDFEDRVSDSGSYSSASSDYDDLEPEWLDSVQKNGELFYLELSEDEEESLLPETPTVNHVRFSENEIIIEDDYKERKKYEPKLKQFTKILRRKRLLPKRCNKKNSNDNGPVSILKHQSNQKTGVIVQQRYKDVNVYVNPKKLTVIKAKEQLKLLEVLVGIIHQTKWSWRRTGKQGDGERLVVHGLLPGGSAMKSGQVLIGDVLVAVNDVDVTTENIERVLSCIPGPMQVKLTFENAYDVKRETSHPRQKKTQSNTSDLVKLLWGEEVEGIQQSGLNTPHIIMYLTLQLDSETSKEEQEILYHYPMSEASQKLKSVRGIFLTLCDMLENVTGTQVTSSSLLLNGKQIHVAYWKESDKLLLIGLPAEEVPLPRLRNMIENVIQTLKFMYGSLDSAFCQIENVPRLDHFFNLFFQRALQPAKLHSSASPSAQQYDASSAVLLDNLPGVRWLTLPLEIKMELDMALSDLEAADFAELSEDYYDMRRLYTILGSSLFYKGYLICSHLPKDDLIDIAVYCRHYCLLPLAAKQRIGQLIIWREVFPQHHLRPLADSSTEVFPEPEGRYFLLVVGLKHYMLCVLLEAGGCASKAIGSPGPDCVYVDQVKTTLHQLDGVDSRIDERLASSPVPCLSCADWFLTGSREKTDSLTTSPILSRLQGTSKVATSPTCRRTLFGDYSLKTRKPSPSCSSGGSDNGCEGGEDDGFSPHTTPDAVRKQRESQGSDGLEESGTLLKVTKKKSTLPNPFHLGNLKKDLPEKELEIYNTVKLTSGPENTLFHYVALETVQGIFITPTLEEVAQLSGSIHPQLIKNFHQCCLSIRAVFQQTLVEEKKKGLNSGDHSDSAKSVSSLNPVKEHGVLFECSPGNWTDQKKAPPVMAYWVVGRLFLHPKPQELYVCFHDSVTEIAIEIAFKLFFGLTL

T2: HsInturned (human Inturned) (human, UniProt Q9ULD6 1-942)
T2 construct: Inturned, human; the N-terminal PDZ domain is not visible in the map; also called FLAG-Inturned; source: Spodoptera frugiperda 21 cells (biGBac), coexpressed with Fuzzy and Rab23^N121I, purified (glutathione agarose, SEC)
T2 sequence: T1 sequence (Q9ULD6 whole entry, looked up)

T3: HsFuzzy-Inturned complex (cryo-EM sample) (human, UniProt Q9BT04 2-418; Q9ULD6 1-942)
T3 construct: Fuzzy, human; as m5; Inturned, human; as m6; Heterodimer of m5 and m6; seen alone and with Rab23^N121I in the same cryo-EM sample; also called dimeric Fuzzy-Inturned complex; source: Spodoptera frugiperda 21 cells (biGBac), coexpressed, purified (glutathione agarose, SEC)
T3 sequence 1: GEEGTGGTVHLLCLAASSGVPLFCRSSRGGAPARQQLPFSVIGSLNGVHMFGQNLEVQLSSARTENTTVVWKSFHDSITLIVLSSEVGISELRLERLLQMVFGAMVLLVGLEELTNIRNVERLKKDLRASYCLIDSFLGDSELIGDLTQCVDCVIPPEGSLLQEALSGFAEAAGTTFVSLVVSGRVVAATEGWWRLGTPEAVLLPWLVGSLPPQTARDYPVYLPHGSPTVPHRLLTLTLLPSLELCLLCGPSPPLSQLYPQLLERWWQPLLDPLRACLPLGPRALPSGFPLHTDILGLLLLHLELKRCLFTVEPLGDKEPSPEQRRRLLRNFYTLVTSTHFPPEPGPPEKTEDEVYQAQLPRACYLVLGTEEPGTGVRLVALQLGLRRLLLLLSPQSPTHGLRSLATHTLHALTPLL
T3 sequence 2: T1 sequence (Q9ULD6 whole entry, looked up)

B1: Rab23^I33A/T35A (natural protein)
chain: MLEEDMEVAIKMVVVGNGAVGKSSMIQRYCKGAFAKDYKKTIGVDFLERQIQVNDEDVRLMLWDTAGQEEFDAITKAYYRGAQACVLVFSTTDRESFEAVSSWREKVVAEVGDIPTVLVQNKIDLLDDSCIKNEEAEALAKRLKLRFYRTSVKEDLNVNEVFKYLAEKYLQKLKQQIAEDPELTHSSSNKIGVFNTSGGSHSGQNSGTLNGGDVINLRPNKQRTKKNRNPFSSCSIP
B2: HsFuzzy (human Fuzzy) (natural protein)
chain: T3 sequence 1
notes: Fuzzy, human; also called His-SUMO-Fuzzy; source: Spodoptera frugiperda 21 cells (biGBac), coexpressed with Inturned and Rab23^N121I, purified (glutathione agarose, SEC)
B3: HsRab23^N121I (nucleotide-free mutant of human Rab23) (natural protein)
chain: LEEDMEVAIKMVVVGNGAVGKSSMIQRYCKGIFTKDYKKTIGVDFLERQIQVNDEDVRLMLWDTAGQEEFDAITKAYYRGAQACVLVFSTTDRESFEAVSSWREKVVAEVGDIPTVLVQIKIDLLDDSCIKNEEAEALAKRLKLRFYRTSVKEDLNVNEVFKYLAEKYLQKLKQQIAEDPELTHSSSNKIGVFNTSGGSHSGQNSGTLNGGDVINLRPNKQRTKKNRNPFSSCSIP
notes: Rab23, human; also called GST-Rab23^N121I; source: Spodoptera frugiperda 21 cells (biGBac), coexpressed with Fuzzy and Inturned, purified (glutathione agarose, SEC); not shown: GST, N-terminal, cleaved

Assay [1] addresses T1, Fuzzy^LD1-Inturned^LD1 catalytic core complex (human).
The target of assay [2] is T2, HsInturned (human Inturned). Description: cryo-EM structure; HsFuzzy, HsInturned and HsRab23^N121I coexpressed in insect cells, complex purified; ~0.7 mg/ml; 0.002% lauryl maltose neopentyl glycol on grid; dimeric and trimeric particles in one sample; 50 mM tris, 200 mM NaCl, 0.5 mM TCEP, 1 mM MgCl2 (pH 8). The note with it: both partners purified.
In the assay “HsFuzzy (human Fuzzy)” the target is B2. The description is as above. The following applies: both partners purified.
Assay [3] concerns the target T3, HsFuzzy-Inturned complex (cryo-EM …). The assay is described as above. The note with it: both partners purified.

Molecule B1 showed a stimulation of nucleotide exchange (MANT-GDP release) of Rab23^I33A/T35A by Fuzzy^LD1-Inturned^LD1, against Rab23 WT in assay [1] of 5 fold.
Turning to B2, the binding result in assay [2] is on record as “binds”.
Consider B3, for which the binding result (in the assay with HsFuzzy (human Fuzzy); in assay [2]; in assay [3]) was “binds” in each case.
